Three molecules from paper PMC8657434, “Aedes aegypti Piwi4 Structural Features Are Necessary for RNA Binding and Nuclear Localization” can be followed below.

Common to all, as to assay: SPR; SPR (Biacore T100, CM5-neutravidin, 5'-biotin RNA immobilized): 10 mM HEPES pH 7.4, 150 mM NaCl, 3 mM EDTA, 0.005% P20; steady-state fit; temperature not stated
Details in all cases: protein: recombinant; tags: 6xHis (C-terminal); label: 5' biotin; single strand
Background: Surface plasmon resonance follows binding to a sensor surface in real time, without labels.

The target of series [1] is T1, AePiwi4 PAZ T41R (Aedes aegypti, UniProt Q171B3 270-380, T310R).
T1 sequence: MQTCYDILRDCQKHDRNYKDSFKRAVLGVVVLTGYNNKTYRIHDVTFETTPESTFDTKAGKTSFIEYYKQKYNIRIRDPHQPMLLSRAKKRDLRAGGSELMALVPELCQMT

The target of series [2] is T2, AePiwi4 PAZ WT (Aedes aegypti, UniProt Q171B3 270-380).
T2 sequence: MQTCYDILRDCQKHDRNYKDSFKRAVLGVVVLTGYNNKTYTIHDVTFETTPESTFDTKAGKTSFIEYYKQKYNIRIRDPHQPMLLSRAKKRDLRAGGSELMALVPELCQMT

Series [3] concerns the target T3, AePiwi4 PAZ T41A (Aedes aegypti, UniProt Q171B3 270-380, T310A).
T3 sequence: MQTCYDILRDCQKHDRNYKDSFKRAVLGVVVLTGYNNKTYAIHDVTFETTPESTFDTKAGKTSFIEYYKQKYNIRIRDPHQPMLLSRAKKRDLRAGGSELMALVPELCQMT

In series [4] the target is T4, AePiwi4 PAZ Y40A (Aedes aegypti, UniProt Q171B3 270-380, Y309A).
T4 sequence: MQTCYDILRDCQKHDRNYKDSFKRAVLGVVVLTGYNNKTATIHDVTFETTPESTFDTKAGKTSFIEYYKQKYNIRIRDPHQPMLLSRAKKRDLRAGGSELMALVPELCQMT

In series [5] the target is T5, AePiwi4 PAZ T39A (Aedes aegypti, UniProt Q171B3 270-380, T308A).
T5 sequence: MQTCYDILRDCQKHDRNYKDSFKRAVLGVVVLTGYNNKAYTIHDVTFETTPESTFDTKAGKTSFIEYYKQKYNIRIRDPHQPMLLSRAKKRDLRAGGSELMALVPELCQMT

The target of series [6] is T6, AePiwi4 PAZ F55A (Aedes aegypti, UniProt Q171B3 270-380, F324A).
T6 sequence: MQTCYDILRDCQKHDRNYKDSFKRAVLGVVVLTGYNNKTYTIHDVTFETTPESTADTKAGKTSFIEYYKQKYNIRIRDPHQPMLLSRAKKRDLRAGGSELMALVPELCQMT

As a reminder, the Kd is the constant that tells how readily two partners part at equilibrium. In the case of CGAUAAGUGAUCUUUCAGCACUGCAGAA (ssRNA, 3' terminal 2'-O-methyl) [3'm 28 nt PCLV piRNA], the Kd in series [1] was 0.57 ± 0.1 µM; in series [2], 1.7 ± 0.8 µM; in series [3], 1.4 ± 0.1 µM; in series [4], 5.5 ± 0.5 µM; in series [5], 0.98 ± 0.2 µM. For the same molecule, the binding result in series [6] is listed as “no binding”.
As to CGAUAAGUGAUCUUUCAGCACUGCAGAA (ssRNA) [3'nm 28 nt PCLV piRNA], the Kd worked out at 2 ± 0.5 µM in series [1], 5 ± 2.2 µM in series [2], 5.6 ± 1.2 µM in series [3] and 2.8 ± 0.4 µM in series [5]. Besides, the binding result in series [4] and in series [6] was “no binding” throughout.
For the molecule AUGAGGACAUAAGCCUACGUAGUAUUCC (ssRNA) [3'nm 28 nt scrambled RNA], in series [2], the Kd worked out at 2.5 ± 0.1 µM.
